Measurements as given in patent US11319366B2, “Antibody facilitating programmed necrosis of cells and application thereof” (SHANGHAI JW INFLINHIX CO., LTD., priority 2015, dated 2022).
“Also recorded” adds a separate entry of the source.

Legend:
L929 cells = assay: Apoptosis and necrosis assay (live/dead staining, active caspase-3, flow cytometry) in L929 cells; type: cell-based, mouse
Procedure: (§1) The cells were stained with live/dead cell staining kits (Invitrogen, Paisley, UK) instructed by the manufacturer's manual and fixed using cytofix/cytoperm fixation/permeabilization solution kits (BD Pharmingen, Oxford, UK). This was followed by intracellular staining with FITC-conjugated anti-caspase-3 antibody (Cell Signaling Technology, Danvers, Mass., USA). Cells were acquired on a CyAn flow cytometer (Beckman Coulter, Fullerton, Calif.) and data were analyzed using Flowjo (Tree Star Inc. Ashland, Oreg.).

[1] = system: TNF receptors on L929 cells; assay: L929 cells immunofluorescence (confocal) microscopy of TNF/antibody binding to TNF receptors; type: cell-based, mouse
Procedure: The cells were fixed with 4% paraformaldehyde (in PBS) for 10 min, blocked in a phosphate-buffer containing 0.5% BSA and 0.1% cold water fish-gelatin for 15 min and subsequently incubated with rabbit anti-TNFR1 antibodies (Abcam) for 1 hour. The cells were extensively washed in PBS and then incubated with the relevant secondary antibodies, which were conjugated with Alexa Fluor 488 or Alexa Fluor 568 21 (Invitrogen). PBS-washed specimens were then mounted in Gelvatol/DABCO (Sigma-Aldrich). DNA was counterstained with DAPI (Sigma-Aldrich). All samples were analyzed by fluorescent microscopy using a Nikon Eclipse 80i at 60×. Images were acquired with NIS-Elements AR3.0 software using a Hamamatsu camera.

TNF [2] = target: T1, TNF (Homo sapiens, UniProt P01375); assay: Identification of binding epitope of the monoclonal antibody
T1 construct: purchased Immunotools (Germany)

TNF [3] = target: T1, TNF; assay: ELISA screening of monoclonal antibodies for binding to TNF; conditions: among 33 monoclonal antibodies
Procedure: A second antibody conjugated with HRP was used to detect the reaction. For the inhibition assay, TNFR1 or synovial fluids were added together with monoclonal antibodies.

[4] = system: C28I2 cells (chondrocytes); assay: Apoptosis assay (active caspase-3) in C28I2 cells; type: cell-based, human; conditions: C28I2 cells stimulated by TNF
Procedure: as §1

T1 sequence (P01375 77-233 limits assumed): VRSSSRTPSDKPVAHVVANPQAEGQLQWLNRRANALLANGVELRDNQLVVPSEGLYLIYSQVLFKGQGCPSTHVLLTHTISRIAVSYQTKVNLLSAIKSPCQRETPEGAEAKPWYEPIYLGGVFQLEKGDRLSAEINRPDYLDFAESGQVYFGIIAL

Row | binding epitope (TNF [2]) | binding to TNF by ELISA (TNF [3]) | Molecule | effect on necrosis caused by 244-12+TNF (L929 cells; L929 cells, added into 244-12+TNF) | effect on binding of TNF to TNF receptors ([1]; confocal microscopy, in the presence of TNF) | direct binding of antibody to cell surface ([1]; in the absence of TNF) | TNF-induced apoptosis (active caspase-3 expression) [4] | TNF-induced apoptosis (active caspase-3 expression) (L929 cells; L929 cells stimulated by TNF) | cell fate (apoptosis / survival / necrosis) of L929 cells (L929 cells; L929 cells, TNF alone or antibody added with TNF)
1 |  |  | CN1C(=O)C(Cc2c[nH]c3ccccc23)NC1=S (centres unmarked) [Nec-1, Necrostatin-1, reference compound] | cell necrosis was conversed into apoptosis; also recorded: cell necrosis transformed into apoptosis |  |  |  |  | 
2 | QLVVPSE | bound TNF the strongest | 244-12: anti-TNF monoclonal antibody specifically binding QLVVPSE; light chain SEQ ID NO: 10, heavy chain SEQ ID NO: 21 (antibody, listed as Homo sapiens) heavy: QIQLVQSGPELKKPGETVKISCKASGYTFTNYGMNWVKQAPGKGLKWMGWINTYTGEPTYADDFKGRFAFSLETSANTAYLQINNLRNEGMATYFCARHYRYAWFPYWGQGTLVTVSAAKTTPPSVYPLAPGCGDTTGSSVTLGCLVKGYFPESVTVTWNSGSLSSSVHTFPALLQSGLYTMSSSVTVPSSTWPSQTVTCSVAHPASSTTVDKKLEPSGPISTINPCPPCKECHKCPAPNLEGGPSVFIFPPNIKDVLMISLTPKVTCVVVDVSEDDPDVQISWFVNNVEVHTAQTQTHREDYNSTIRVVSTLPIQHQDWMSGKEFKCKVNNKDLPSPIERTISKIKGLVRAPQVYILPPPAEQLSRKDVSLTCLVVGFNPGDISVEWASNGHTEENYKDTAPVLDSDGSYFIYSKLNMKTSKWEKTDSFSCNVRHEGLKNYYLKKTISRSPGK light: DIQMTQSPASLSASVGETVTITCRASGNIHIYLAWYQQKQGKSPQLLVYNAKTLADGVPSRFSGSGSGTQYSLKINSLQPEDFGSYYCQHFWSIPWTFGGGTKLEIKRADAAPTVSIFPPSSEQLTSGGASVVCFLNNFYPKDINVKWKIDGSERQNGVLNSWTDQDSKDSTYSMSSTLTLTKDEYERHNSYTCEATHKTSTSPIVKSFNRNEC |  | does not affect the binding of TNF to cell surface receptors | can not directly bind to cell surface | blocks TNF-induced apoptosis | apoptosis was inhibited; also recorded: blocks TNF-induced apoptosis | necrosis of L929 cells occurred; also recorded: necrosis of L929 cell
